± gives the uncertainty stated by the source.
Test: self-splicing fitness, log relative to wild type (ln ratio); higher = more splicing; Tetrahymena group I intron in knt gene, E. coli kanamycin selection, DiMSum; sequences stand for … in CUCUCU…GGAGGGAAAAGUUAUCAGGCAUGCACCUGGUAGCUAGUCUUUAAACCAAUAGAUUGCAUCGGUUUAAAAGGCAAGACCGUCAAAUUGCGGGAAAGGGGUCAACAGCCGUUCAGUACCAAGUCUCAGGGGAAACUUUGAGAUGGCCUUGCAAAGGGUAUGGUAAUAAGCUGACGGACAUGGUCCUAACCACGCAGCCAAGUCCUAAGUCAACAGAUCUUCUGUUGAUAUGGAUGCAGUUCACAGACUAAAUGUCGGUCGGGGAAGAUGUAUUCUUCUCAUAAGAUAUAGUCGGACCUCUCCUUAAUGGGAGCUAGCGGAUGAAGUGAUGCAACACUGGAGCCGCUGGGAACUAAUUUGUAUGCGAAAGUAUAUUGAUUAGUUUUGGAGUACUCGUGGUCG
How it was run: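 Colonies from six replicate transformations of E. coli BL21(DE3) were pooled and amplicon-sequenced on an Illumina HiSeq 2500. The library placed an intron with all eight P1ex-region nucleotides randomised inside the knt kanamycin-resistance gene on pET-22b(+), and cells grew overnight at 37°C or 30°C on LB agar with or without 25 μg/mL kanamycin (plus 100 μg/mL carbenicillin, 50 μM IPTG, 0.2% rhamnose). Fitness is the DiMSum error-weighted combination of wild-type-normalised replicate fold changes, kanamycin versus none.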

Sequence | self-splicing fitness (ln) (30 °C) | self-splicing fitness (ln) (37 °C)
CACCAGCAAUAUUACGGAAA | -1.63 ± 0.1 | -2.03 ± 0.14
AAUCAGCAAUAUUACGCGCU | -1.16 ± 0.075 | -0.732 ± 0.084
AUCUAGCAAUAUUACGGCAC | -1.5 ± 0.13 | -0.819 ± 0.17
CUUUAGCAAUAUUACGCGAU | -3.05 ± 0.24 | -0.751 ± 0.17
UAUUAGCAAUAUUACGCACU | -1.04 ± 0.19 | -1.12 ± 0.16
AUGUAGCAAUAUUACGCGAA | -0.976 ± 0.088 | -1.04 ± 0.13
GACCAGCAAUAUUACGCCCC | -1.35 ± 0.17 | -0.908 ± 0.17
CCAGAGCAAUAUUACGUUAG | -3.15 ± 0.097 | -1.72 ± 0.097
GUCUAGCAAUAUUACGGAUA | -1.26 ± 0.099 | -0.0363 ± 0.11
UGGGAGCAAUAUUACGAUGU | -3.95 ± 0.33 | -2.53 ± 0.3
CUGUAGCAAUAUUACGCGUC |  | -2.41 ± 0.45
UGUUAGCAAUAUUACGCGUG | -0.492 ± 0.11 | -0.61 ± 0.099
CCGCAGCAAUAUUACGAGCC | -3.64 ± 0.23 | -2.09 ± 0.2
UUUGAGCAAUAUUACGAGUU |  | -1.87 ± 0.42
GGCAAGCAAUAUUACGUGUU | -1.96 ± 0.059 | -1.83 ± 0.076
UGCAAGCAAUAUUACGUAUU | -3.36 ± 0.37 | -2.08 ± 0.21
CUUUAGCAAUAUUACGUAUU | -3.07 ± 0.24 | -1.34 ± 0.21
CUGAAGCAAUAUUACGCACC | -2.27 ± 0.34 | 
GCAUAGCAAUAUUACGAGCC | -2.61 ± 0.2 | -2.49 ± 0.33
GUACAGCAAUAUUACGGCCC | -0.268 ± 0.088 | -0.155 ± 0.11
AUACAGCAAUAUUACGGGCA | -0.996 ± 0.099 | -0.765 ± 0.1
CGAUAGCAAUAUUACGAUGG | -0.196 ± 0.12 | -0.185 ± 0.2
GGGUAGCAAUAUUACGUUGG | -3.28 ± 0.28 | -2.14 ± 0.32
ACCGAGCAAUAUUACGGUUC | -3.5 ± 0.43 | 
CUGGAGCAAUAUUACGAGAC |  | -0.723 ± 0.29
CGGUAGCAAUAUUACGAGGG | -3.72 ± 0.36 | -2.96 ± 0.25
UUAUAGCAAUAUUACGCUGA | -2.17 ± 0.14 | -0.624 ± 0.13

Sequence | self-splicing fitness (ln) (30 °C) | self-splicing fitness (ln) (37 °C)
UUUUAGCAAUAUUACGUCUU | -2.43 ± 0.18 | -1.33 ± 0.19
UUAGAGCAAUAUUACGUCUA | -0.712 ± 0.071 | -0.109 ± 0.11
GGAUAGCAAUAUUACGAUAC | -1.23 ± 0.13 | -1.8 ± 0.16
GGCGAGCAAUAUUACGAGAA |  | -2.57 ± 0.41
UCACAGCAAUAUUACGCAUC | -4.21 ± 0.36 | -3.04 ± 0.4
UAACAGCAAUAUUACGUUUU | -3.39 ± 0.12 | -1.7 ± 0.099
AGAGAGCAAUAUUACGAUGC | -3.3 ± 0.48 | 
CAUCAGCAAUAUUACGACCA | -1.38 ± 0.19 | -1.1 ± 0.19
GCACAGCAAUAUUACGAUUG | -2.27 ± 0.077 | -0.657 ± 0.083
AAAAAGCAAUAUUACGGAAG | -2.88 ± 0.16 | -1.38 ± 0.14
UUGAAGCAAUAUUACGCAUA | -0.461 ± 0.072 | 0.189 ± 0.1
AAUCAGCAAUAUUACGGCUC | -0.84 ± 0.082 | 0.535 ± 0.097
GUCCAGCAAUAUUACGCUUU | -0.441 ± 0.06 | 0.678 ± 0.076
CGCUAGCAAUAUUACGAGGC | -3.54 ± 0.2 | -2.95 ± 0.23
AAAUAGCAAUAUUACGGUGA | -1.69 ± 0.13 | -0.521 ± 0.11
UCCCAGCAAUAUUACGAACC | -1.58 ± 0.2 | -2.08 ± 0.46
UAGUAGCAAUAUUACGAUUG | -0.0683 ± 0.084 | -0.0425 ± 0.12
GCAAAGCAAUAUUACGCCCU | -0.279 ± 0.2 | 0.0848 ± 0.16
CAUAAGCAAUAUUACGGCCC | -3.92 ± 0.4 | 
CCAAAGCAAUAUUACGUGCG | -0.979 ± 0.065 | -0.611 ± 0.081
UAGAAGCAAUAUUACGGAGG | -3.39 ± 0.3 | -0.889 ± 0.27
GUAUAGCAAUAUUACGAGGU | -2.99 ± 0.26 | -0.619 ± 0.28
CUUCAGCAAUAUUACGGUUA | -1.58 ± 0.19 | -1.08 ± 0.2
CACAAGCAAUAUUACGCAUU | -2.9 ± 0.096 | -2.5 ± 0.14
AGGUAGCAAUAUUACGCUAC | -3.78 ± 0.047 | -2.71 ± 0.059
GUAGAGCAAUAUUACGUAAG | -2.29 ± 0.26 | -0.825 ± 0.27
UGCCAGCAAUAUUACGGUGG | -3.29 ± 0.13 | -2.97 ± 0.21

Sequence | self-splicing fitness (ln) (30 °C) | self-splicing fitness (ln) (37 °C)
UAAGAGCAAUAUUACGAGCG | -3.12 ± 0.35 | -1.54 ± 0.26
AGGGAGCAAUAUUACGGUCU | -1.67 ± 0.21 | -0.696 ± 0.21
AAGGAGCAAUAUUACGCGUC | -2.96 ± 0.37 | 
UCUAAGCAAUAUUACGCGCG | -1.87 ± 0.14 | -1.74 ± 0.18
GCGAAGCAAUAUUACGCUGA | -0.605 ± 0.24 | -1.5 ± 0.34
UUCGAGCAAUAUUACGAACA | -2.9 ± 0.28 | -1.73 ± 0.18
GAACAGCAAUAUUACGCAAU | -1.53 ± 0.11 | -0.769 ± 0.11
CCGAAGCAAUAUUACGCUCA | -3.65 ± 0.33 | -3.47 ± 0.42
GAGUAGCAAUAUUACGUUCC | -1.88 ± 0.46 | 
GCGUAGCAAUAUUACGUAAC | -3.58 ± 0.27 | -0.0467 ± 0.15
UUGAAGCAAUAUUACGUCCU | -0.231 ± 0.18 | -0.346 ± 0.13
UGCGAGCAAUAUUACGUAUA | -2.89 ± 0.25 | -0.733 ± 0.22
CCGCAGCAAUAUUACGGAUA | -4.16 ± 0.22 | -2.91 ± 0.23
AGUUAGCAAUAUUACGCUUA | -1.3 ± 0.15 | -0.343 ± 0.16
CUUUAGCAAUAUUACGGCGU | -3.31 ± 0.47 | -1.89 ± 0.26
UAACAGCAAUAUUACGCCUC | -2.18 ± 0.35 | -2.06 ± 0.33
AAAAAGCAAUAUUACGUCAU | -2.2 ± 0.08 | -1.14 ± 0.092
GUUCAGCAAUAUUACGGUUC | -1.66 ± 0.14 | 0.019 ± 0.18
AUGAAGCAAUAUUACGAAAC | -2.04 ± 0.2 | -0.541 ± 0.3
CGGUAGCAAUAUUACGCACA | -0.755 ± 0.26 | -0.0778 ± 0.19
GCGGAGCAAUAUUACGCUGG |  | -2.1 ± 0.4
GACGAGCAAUAUUACGUGAG | -2.7 ± 0.16 | -2.62 ± 0.19
GAUCAGCAAUAUUACGAAGC | -1.74 ± 0.078 | -0.845 ± 0.086
CGACAGCAAUAUUACGGAGG | -1.91 ± 0.086 | -1.21 ± 0.12
GGAAAGCAAUAUUACGAGUC | -0.868 ± 0.11 | -1.48 ± 0.12

Source: the supplement of paper PMC7877785
